Measured values published in patent publication US12630600B2 (MEDIMMUNE LIMITED, priority 2022, dated 2026).
Starred links: 1 amine or outer side, 2 acyl side, 3 side chain; linkers in the order of their positions; H or OH if unused. Non-standard residues stand in square brackets, D forms with d. Groups on a side chain read outwards from the residue. No end group written: not given here. *: point of attachment. C20 diacid = O=C(O)CCCCCCCCCCCCCCCCCCC(=O)*; C18 diacid = O=C(O)CCCCCCCCCCCCCCCCC(=O)*; γGlu = O=C(O)[C@H](CCC(=O)[*:2])N[*:1]; αMeF = C[C@](N)(Cc1ccccc1)C(=O)O; AEEA = NCCOCCOCC(=O)O; Aib = CC(C)(N)C(=O)O

Columns and labels:
Test in all cases: cell-based or functional assay
human GLP-1 receptor [1] = target: human GLP-1 receptor (human, UniProt P43220)
human GLP-1 receptor [2] = target: human GLP-1 receptor (human, UniProt P43220); remark: listed apart in the source
human glucagon receptor [3] = target: human glucagon receptor (human, UniProt P47871)
human glucagon receptor [4] = target: human glucagon receptor (human, UniProt P47871); remark: listed apart in the source

hGLP-1R EC50 (pM) (human GLP-1 receptor [1])	cAMP production, hGLP-1R EC50 (pM) (human GLP-1 receptor [2])	cAMP production, hGluc-R EC50 (pM) (human glucagon receptor [3])	hGluc-R EC50 (pM) (human glucagon receptor [4])	Binder
601	–	–	–	H[Aib]HGS[αMeF]TSDVSK[αMeF]LDSR[Aib]AK([AEEA-AEEA-γGlu-γGlu-C18 diacid])D[αMeF]VESIANT-NH2 [Peptide 250]
–	8.71	2650	–	H[Aib]QGTFTSDVSK[αMeF]LDSK([AEEA-AEEA-γGlu-C18 diacid])RAQDFVRWVVE[Aib]G-OH (N-terminus assumed; SMILES CC(C)C[C@H](NC(=O)[C@](C)(Cc1ccccc1)NC(=O)[C@H](CCCCN)NC(=O)[C@H](CO)NC(=O)[C@@H](NC(=O)[C@H](CC(=O)O)NC(=O)[C@H](CO)NC(=O)[C@@H](NC(=O)[C@H](Cc1ccccc1)NC(=O)[C@@H](NC(=O)CNC(=O)[C@H](CCC(N)=O)NC(=O)C(C)(C)NC(=O)[C@@H](N)Cc1c[nH]cn1)[C@@H](C)O)[C@@H](C)O)C(C)C)C(=O)N[C@@H](CC(=O)O)C(=O)N[C@@H](CO)C(=O)N[C@@H](CCCCNC(=O)COCCOCCNC(=O)COCCOCCNC(=O)CC[C@H](NC(=O)CCCCCCCCCCCCCCCCC(=O)O)C(=O)O)C(=O)N[C@@H](CCCNC(=N)N)C(=O)N[C@@H](C)C(=O)N[C@@H](CCC(N)=O)C(=O)N[C@@H](CC(=O)O)C(=O)N[C@@H](Cc1ccccc1)C(=O)N[C@H](C(=O)N[C@@H](CCCNC(=N)N)C(=O)N[C@@H](Cc1c[nH]c2ccccc12)C(=O)N[C@H](C(=O)N[C@H](C(=O)N[C@@H](CCC(=O)O)C(=O)NC(C)(C)C(=O)NCC(=O)O)C(C)C)C(C)C)C(C)C) [Peptide 149]
29.9	–	–	8.14	H[Aib]QGT[αMeF]TSDVSK[αMeF]LDSRAAK([AEEA-AEEA-γGlu-C18 diacid])DFVQWIANT-NH2 (N-terminus assumed; SMILES CC[C@H](C)[C@H](NC(=O)[C@H](Cc1c[nH]c2ccccc12)NC(=O)[C@H](CCC(N)=O)NC(=O)[C@@H](NC(=O)[C@H](Cc1ccccc1)NC(=O)[C@H](CC(=O)O)NC(=O)[C@H](CCCCNC(=O)COCCOCCNC(=O)COCCOCCNC(=O)CC[C@H](NC(=O)CCCCCCCCCCCCCCCCC(=O)O)C(=O)O)NC(=O)[C@H](C)NC(=O)[C@H](C)NC(=O)[C@H](CCCNC(=N)N)NC(=O)[C@H](CO)NC(=O)[C@H](CC(=O)O)NC(=O)[C@H](CC(C)C)NC(=O)[C@](C)(Cc1ccccc1)NC(=O)[C@H](CCCCN)NC(=O)[C@H](CO)NC(=O)[C@@H](NC(=O)[C@H](CC(=O)O)NC(=O)[C@H](CO)NC(=O)[C@@H](NC(=O)[C@](C)(Cc1ccccc1)NC(=O)[C@@H](NC(=O)CNC(=O)[C@H](CCC(N)=O)NC(=O)C(C)(C)NC(=O)[C@@H](N)Cc1c[nH]cn1)[C@@H](C)O)[C@@H](C)O)C(C)C)C(C)C)C(=O)N[C@@H](C)C(=O)N[C@@H](CC(N)=O)C(=O)N[C@H](C(N)=O)[C@@H](C)O) [Peptide 205]
–	–	–	407	H[Aib]HGS[αMeF]TSDVSK[αMeF]LDSRAAK([AEEA-AEEA-γGlu-γGlu-C20 diacid])D[αMeF]VQ[Aib]IANTGG-NH2 (N-terminus assumed; SMILES CC[C@H](C)[C@H](NC(=O)C(C)(C)NC(=O)[C@H](CCC(N)=O)NC(=O)[C@@H](NC(=O)[C@](C)(Cc1ccccc1)NC(=O)[C@H](CC(=O)O)NC(=O)[C@H](CCCCNC(=O)COCCOCCNC(=O)COCCOCCNC(=O)CC[C@H](NC(=O)CC[C@H](NC(=O)CCCCCCCCCCCCCCCCCCC(=O)O)C(=O)O)C(=O)O)NC(=O)[C@H](C)NC(=O)[C@H](C)NC(=O)[C@H](CCCNC(=N)N)NC(=O)[C@H](CO)NC(=O)[C@H](CC(=O)O)NC(=O)[C@H](CC(C)C)NC(=O)[C@](C)(Cc1ccccc1)NC(=O)[C@H](CCCCN)NC(=O)[C@H](CO)NC(=O)[C@@H](NC(=O)[C@H](CC(=O)O)NC(=O)[C@H](CO)NC(=O)[C@@H](NC(=O)[C@](C)(Cc1ccccc1)NC(=O)[C@H](CO)NC(=O)CNC(=O)[C@H](Cc1c[nH]cn1)NC(=O)C(C)(C)NC(=O)[C@@H](N)Cc1c[nH]cn1)[C@@H](C)O)C(C)C)C(C)C)C(=O)N[C@@H](C)C(=O)N[C@@H](CC(N)=O)C(=O)N[C@H](C(=O)NCC(=O)NCC(N)=O)[C@@H](C)O) [Peptide 233]

Second part, the binder before the results:

Binder	hGLP-1R EC50 (pM) (human GLP-1 receptor [1])	cAMP production, hGLP-1R EC50 (pM) (human GLP-1 receptor [2])	cAMP production, hGluc-R EC50 (pM) (human glucagon receptor [3])	hGluc-R EC50 (pM) (human glucagon receptor [4])
H[Aib]QGTFTSDVSK[αMeF]LDSK([AEEA-AEEA-γGlu-C18 diacid])RAQDFVRWLEA[Aib]G-OH (N-terminus assumed; SMILES CC(C)C[C@H](NC(=O)[C@H](Cc1c[nH]c2ccccc12)NC(=O)[C@H](CCCNC(=N)N)NC(=O)[C@@H](NC(=O)[C@H](Cc1ccccc1)NC(=O)[C@H](CC(=O)O)NC(=O)[C@H](CCC(N)=O)NC(=O)[C@H](C)NC(=O)[C@H](CCCNC(=N)N)NC(=O)[C@H](CCCCNC(=O)COCCOCCNC(=O)COCCOCCNC(=O)CC[C@H](NC(=O)CCCCCCCCCCCCCCCCC(=O)O)C(=O)O)NC(=O)[C@H](CO)NC(=O)[C@H](CC(=O)O)NC(=O)[C@H](CC(C)C)NC(=O)[C@](C)(Cc1ccccc1)NC(=O)[C@H](CCCCN)NC(=O)[C@H](CO)NC(=O)[C@@H](NC(=O)[C@H](CC(=O)O)NC(=O)[C@H](CO)NC(=O)[C@@H](NC(=O)[C@H](Cc1ccccc1)NC(=O)[C@@H](NC(=O)CNC(=O)[C@H](CCC(N)=O)NC(=O)C(C)(C)NC(=O)[C@@H](N)Cc1c[nH]cn1)[C@@H](C)O)[C@@H](C)O)C(C)C)C(C)C)C(=O)N[C@@H](CCC(=O)O)C(=O)N[C@@H](C)C(=O)NC(C)(C)C(=O)NCC(=O)O) [Peptide 147]	–	15.3	43.5	–
H[Aib]QGTFTSDVSK[αMeF]LDSK([AEEA-AEEA-γGlu-C18 diacid])RAQDFVRWIAE[Aib]G-OH (N-terminus assumed; SMILES CC[C@H](C)[C@H](NC(=O)[C@H](Cc1c[nH]c2ccccc12)NC(=O)[C@H](CCCNC(=N)N)NC(=O)[C@@H](NC(=O)[C@H](Cc1ccccc1)NC(=O)[C@H](CC(=O)O)NC(=O)[C@H](CCC(N)=O)NC(=O)[C@H](C)NC(=O)[C@H](CCCNC(=N)N)NC(=O)[C@H](CCCCNC(=O)COCCOCCNC(=O)COCCOCCNC(=O)CC[C@H](NC(=O)CCCCCCCCCCCCCCCCC(=O)O)C(=O)O)NC(=O)[C@H](CO)NC(=O)[C@H](CC(=O)O)NC(=O)[C@H](CC(C)C)NC(=O)[C@](C)(Cc1ccccc1)NC(=O)[C@H](CCCCN)NC(=O)[C@H](CO)NC(=O)[C@@H](NC(=O)[C@H](CC(=O)O)NC(=O)[C@H](CO)NC(=O)[C@@H](NC(=O)[C@H](Cc1ccccc1)NC(=O)[C@@H](NC(=O)CNC(=O)[C@H](CCC(N)=O)NC(=O)C(C)(C)NC(=O)[C@@H](N)Cc1c[nH]cn1)[C@@H](C)O)[C@@H](C)O)C(C)C)C(C)C)C(=O)N[C@@H](C)C(=O)N[C@@H](CCC(=O)O)C(=O)NC(C)(C)C(=O)NCC(=O)O) [Peptide 148]	–	40.2	568	–
H[Aib]QGTFTSDVSK[αMeF]LDSK([AEEA-AEEA-γGlu-C18 diacid])RAQDFVRWLASRGI-OH (N-terminus assumed; SMILES CC[C@H](C)[C@H](NC(=O)CNC(=O)[C@H](CCCNC(=N)N)NC(=O)[C@H](CO)NC(=O)[C@H](C)NC(=O)[C@H](CC(C)C)NC(=O)[C@H](Cc1c[nH]c2ccccc12)NC(=O)[C@H](CCCNC(=N)N)NC(=O)[C@@H](NC(=O)[C@H](Cc1ccccc1)NC(=O)[C@H](CC(=O)O)NC(=O)[C@H](CCC(N)=O)NC(=O)[C@H](C)NC(=O)[C@H](CCCNC(=N)N)NC(=O)[C@H](CCCCNC(=O)COCCOCCNC(=O)COCCOCCNC(=O)CC[C@H](NC(=O)CCCCCCCCCCCCCCCCC(=O)O)C(=O)O)NC(=O)[C@H](CO)NC(=O)[C@H](CC(=O)O)NC(=O)[C@H](CC(C)C)NC(=O)[C@](C)(Cc1ccccc1)NC(=O)[C@H](CCCCN)NC(=O)[C@H](CO)NC(=O)[C@@H](NC(=O)[C@H](CC(=O)O)NC(=O)[C@H](CO)NC(=O)[C@@H](NC(=O)[C@H](Cc1ccccc1)NC(=O)[C@@H](NC(=O)CNC(=O)[C@H](CCC(N)=O)NC(=O)C(C)(C)NC(=O)[C@@H](N)Cc1c[nH]cn1)[C@@H](C)O)[C@@H](C)O)C(C)C)C(C)C)C(=O)O) [Peptide 145]	–	22.6	4590	–
H[Aib]QGTFTSDVSK[αMeF]LDSK([AEEA-AEEA-γGlu-C18 diacid])RAQDFVRWLASR-OH (N-terminus assumed; SMILES CC(C)C[C@H](NC(=O)[C@H](Cc1c[nH]c2ccccc12)NC(=O)[C@H](CCCNC(=N)N)NC(=O)[C@@H](NC(=O)[C@H](Cc1ccccc1)NC(=O)[C@H](CC(=O)O)NC(=O)[C@H](CCC(N)=O)NC(=O)[C@H](C)NC(=O)[C@H](CCCNC(=N)N)NC(=O)[C@H](CCCCNC(=O)COCCOCCNC(=O)COCCOCCNC(=O)CC[C@H](NC(=O)CCCCCCCCCCCCCCCCC(=O)O)C(=O)O)NC(=O)[C@H](CO)NC(=O)[C@H](CC(=O)O)NC(=O)[C@H](CC(C)C)NC(=O)[C@](C)(Cc1ccccc1)NC(=O)[C@H](CCCCN)NC(=O)[C@H](CO)NC(=O)[C@@H](NC(=O)[C@H](CC(=O)O)NC(=O)[C@H](CO)NC(=O)[C@@H](NC(=O)[C@H](Cc1ccccc1)NC(=O)[C@@H](NC(=O)CNC(=O)[C@H](CCC(N)=O)NC(=O)C(C)(C)NC(=O)[C@@H](N)Cc1c[nH]cn1)[C@@H](C)O)[C@@H](C)O)C(C)C)C(C)C)C(=O)N[C@@H](C)C(=O)N[C@@H](CO)C(=O)N[C@@H](CCCNC(=N)N)C(=O)O) [Peptide 146]	–	24.6	1630	–
